# According to patent publication US20150368301A1:
# Columns and labels:
# [1] = target: Phosphorylated Nox1 peptide (pNox1, KLKT*QKIYF); experiment: ITC, pNox1 peptide injected into NoxA1 AD peptide, single site model, n=3, 25° C.; phosphorylated Nox1 peptide (pNox1, T429)
# [2] = target: Phosphorylated Nox1 peptide (pNox1, KLKT*QKIYF); experiment: ITC, pNox1 peptide injected into NoxA1 AD peptide, single site model, n=3, 25° C.
# [3] = target: Phosphorylated Nox1 peptide (pNox1, KLKT*QKIYF); experiment: ITC, phosphorylated versus unphosphorylated Nox1 peptide
substance,measurement,setting,value
NoxA1 activation domain (AD) peptide (…),Kd,[1],1500 nM
same,stoichiometry,[2],0.86
same,fold increase of association against the unphosphorylated Nox1 peptide,[3],> 100 fold
